Measured values reported in a protein production outcome set (Wang et al. 2014).

Experiment: label from the status in PepcDB records
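Further: failed if final PepcDB status was selected cloned or expressed and not failed if soluble or beyond.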

Sequence | protein production
MNKRRNHKTNKAKDSLSDEETKHDVLAQEVEGGDSSSDEDDVNIVLEPSSTYYGGDTSTGDSKGLFVGGTTTRHWQRPGYSSTAEGGIVGSGVSAYSRGGVDLSLVPKPPTDFPGAHVDYSVFENEIDSLEEKPWREKGAELSDYFNYGFTEDTWREYCRRQQMMRLYSQSLMPIRTLDSGGPLHNIDSPNEPSRKVPRGQQNRRLTPAYSTLRNNFDSKFYSDGNESFSSDYVRYSRPEQTDGDDVILTLTKPTSVDES | failed
MTTPSRRRLMRDFKKLQEDPPAGVSGAPTEDNILTWEAIIFGPQETPFEDGTFKLSLEFTEEYPNKPPTVKFISKMFHPNVYADGSICLDILQNRWSPTYDVAAILTSIQSLLDEPNPNSPANSLAAQLYQENRREYEKRVQQIVEQSWLNFGENEGDAVLKDDVEIEEIAAPGANDADDDRMDEGASGSNA | not failed
MWVKPLREASQGKKEEEIHIKTSSSSSARSLAPLLVLKLIRSLSSSSARLQASQLVLKLLCSSSSSSACPQALQLALKLLCWSSSSSTGPQAPQLVFKLSSSSLSSARLQAPPLNDHLLA | failed
MLLDEIKRMSYDELKRLAEDIRKRITEVVLKNGGHLASNLGTIELTLALYRVFDPREDAIIWDTGHQAYTHKILTGRDDLFHTIRTFGGLSGFVTRRESPLDWFGTGHAGTSIAAGLGFEKAFELLGEKRHVVVVIGDGALTSGMALEALNQLKNLNSKMKIILNDNGMSISPNVGGLAYHLSKLRTSPIYLKGKKVLKKVLEKTEIGFEVEEEMKYLRDSLKGMIQGTNFFESLGLKYFGPFDGHNIELLEKVFKRIRDYDYSSVVHVVTKKGKGFTAAEENPTKYHSASPSGKPKMLSYSELLGHTLSRVAREDKKIVAITAAMADGTGLSIFQKEHPDRFFDLGITEQTCVTFGAALGLHGMKPVVAIYSTFLQRAYDQIIHDVALQNAPVLFAIDRSGVVGEDGPTHHGLFDINYLLPVPNMKIISPSSPEEFVNSLYTVLKHLDGPVAIRYPKESFYGEVESLLENMKEIDLGWKILKRGREAAIIATGTILNEVLKIPLDVTVVNALTVKPLDTAVLKEIARDHDLIITVEEAMKIGGFGSFVAQRLQEMGWQGKIVNLGVEDLFVPHGGRKELLSMLGLDSEGLTKTVLTYIKARSREGKV | failed
MAETTPKVKGHVVILPYPVQGHLNPMVQFAKRLVSKNVKVTIATTTYTASSITTPSLSVEPISDGFDFIPIGIPGFSVDTYSESFKLNGSETLTLLIEKFKSTDSPIDCLIYDSFLPWGLEVARSMELSAASFFTNNLTVCSVLRKFSNGDFPLPADPNSAPFRIRGLPSLSYDELPSFVGRHWLTHPEHGRVLLNQFPNHENADWLFVNGFEGLEETQDCENGESDAMKATLIGPMIPSAYLDDRMEDDKDYGASLLKPISKECMEWLETKQAQSVAFVSFGSFGILFEKQLAEVAIALQESDLNFLWVIKEAHIAKLPEGFVESTKDRALLVSWCNQLEVLAHESIGCFLTHCGWNSTLEGLSLGVPMVGVPQWSDQMNDAKFVEEVWKVGYRAKEEAGEVIVKSEELVRCLKGVMEGESSVKIRESSKKWKDLAVKAMSEGGSSDRSINEFIESLGK | failed
SLIGFLSDRQGFEKQYHDIDLSSFGIREGISEIIASTGFEHPNAAPIGIVMKGERPFVRLFKGSHTWENVLKEKCLASNVVYDPILFVRSTFSDLVPSEFEYVDAGEFKFPVLKEAIAWVVFECINLRNTDQSLVADLVPLNAGFNERNIKELPVPNRGFNAVLEATVHATRYQLTGEEKYLELIRHYESLASKCGGDAEKKAMKLIYEALGL | not failed
MEWSLPVDLQEEILSRVPAKSLARWKSTPKQWKGPISIEFLHLLRSTLKFPLLNLHLKSKSIYVTSFTAMVFCYAPPSTKDSRFGIHVQGKPSGFLADEQNKVVVCCKWRSDSINTIYFVGENKHVQVDQRRGDLTLGQSCSFLMNYVPSFVQIQQGTLLAPRT | failed
MSHVELQPGFDFQQAGKEVLAIERECLAELDQYINQNFTLACEKMFWCKGKVVVMGMGKSGHIGRKMAATFASTGTPSFFVHPGEAAHGDLGMVTPQDVVIAISNSGESSEITALIPVLKRLHVPLICITGRPESSMARAADVHLCVKVAKEACPLGLAPTSSTTATLVMGDALAVALLKARGFTAEDFALSHPGGALGRKLLLRVNDIMHTGDEIPHVKKTASLRDALLEVTRKNLGMTVICDDNMMIEGIFTDGDLRRVFDMGVDVRQLSIADVMTPGGIRVRPGILAVEALNLMQSRHITSVMVADGDHLLGVLHMHDLLRAGVV | failed
MEKVTKMISRMMVRVVTVAFALSLVAVACHEAEARAGGGRSFGSRGTRTYRPPTRTVDPAPASRPQPAPAVPQTFPQQRQGGSFLRSMAGGIVGGLLGGMLFRSLGFAGPGAGGVGLFDILLIGGILYLVYRFVASRRREAAATAGRAPDWSREEPVTPQQYRYGQPAESVPAAGADSGLAHVRQMDGSFSEEQFRQLAQDVFFRVQGAWTRRDLSSAREVLAPEMERALQGDVAELKARGQVNRLENIAVRQVELVEAWQEEGCDFITVRFLANLLDYTTDEEGRVLSGSDREPVKFEEFWTFTRPVGPNPWKLSAIQQA | failed
MLIKQTDYFRIYRVINSLLISQNADPASASMYFSTFGAFILQQHYKVKAVPKGGLAAYNLGGTVLLFADHREDGYVTGAGENFHCWVEADGWAIDFMAPAFSEGTDALAVPAKMFQRPLSAMAASINDLGQSGDFFYRSEPEATARRFADWHKQAMIGDMASVAANWFRKSPKQMAASLSVTDRDGKARTVPLTGEMLTGAW | not failed
MNDDKDVVIDQIYYISTDPSATTYPTTFSVSLVDNSVAGRPFFYVVGKSTMRVDRNTTLRVEEDSKLVEKYNETYGKKYLPFPEGTYSFSTNEVTINQGDNFSSDTIFISFSNWDKLSKIDKYLLPVSLKAVDDKGAVSMDRNLIYFIADFSTTNTGYNKPAAWKPLDRTDWDVSFSYAYGYDEAQFGGRLAVDGDVSTTWFTWGVVSAGECWWATTLPAPTHLTGFSLTRQTTFGSSYNVREAKVKVKKEGDTEWTEAGLFRFGSFKGNDPQYAVFIPAVENVKEFRIDIVSPADFTGFAELDLYQLEHHHHHH | failed
MKFLRLLKHPASTAPGRAFQLYPWQERIVRAIYGPRHPDGSRIVKTVFLLVPRGNRKTSLAAALALLHTLGPERVPAGQVIFAACDREQAGIGFREAANIIRADKRLVAATRIYDAHNSAKKIVFRAEDVTLSAISSDGGAQHGRTPAFTLIDELHAWKGRDLWEALKSGTAKVADSLTVIATTAGRGADTVAAEQYAYALAVARGEIVNPAFLPILFAPEPGDDWTDEATWHKVNPGLRHGFPSLEGLRTLAKEAEGRPSDAYAFRQFNLNEWMANSRDPLFDFDTYDARRFAEDLDELEGLPCWIGVDLSISGDLSAVVAAWKHPDGQISVKPWFWVPGDDLKVRADRDGVPYERWRDEGHLIATPGAIIDQSAVADQIRELCARFDAQEVAFDPHLARPMMQSLYDEGLPVVEMRQAPLTMGVAAGDLERVVNGRLIRHDGHPVLRNHLQNVCASRSESGLIRMHKVQRTSRIDGAVAAAMAVSRAVAADSRKSAYSDPEAEGLFVF | failed
MFVRRFEEVLALPTAMTALLGCQLLGELIVRALHLPIPGPVLGLLLLLAWLLLGTTVTLPVSSSLPEVARGLLNHMSLLFIPAGVGIILHGQTLADQWLPISVSLFGSTALALIATALTFRAVCKIMERSKAKKEGGR | failed
MVDQQDTFAEYFKNWYIFYKKPKVSKVTLNRYQYTYNVINEYFGNKLLKDITRANYQKFIVKYGQNHSPNTMKMINNCIKACVKNAVYDEEIKKDFTYNIELISNRLEHHHHHH | failed
GVPPSQGDLEYQMSTTARAKRVREAMCPGVSGEGQLALLATQVEGQATNLQRLAEPSQLLKSAIVHLINYQDDAELVTRALPELTKLLNDEDPVVVTKAAMIVNQLSKKEASRRALMGSPQLVAAVVRTMQNTSDLDTARCTTSILHNLSHHREGLLAIFKSGGIPALVRMLSSPVESVLFYAITTLHNLLLYQEGAKMACAGRRAQKMVPLLNKNNPKFLAITTDCLQLLAYGNQESKLIILANGGPQALVQIMRNYSYEKLLWTTSRVLKVLSVCPSNKPAIVEAGGMQALGKHLTSNSPRLVQNCLWTLRNLSDVATKQEGLESVLKILVNQLSVDDVNVLTCATGTLSNLTCNNSKNKTLVTQNSGVEALIHAILRAGDKDDITEPAVCALRHLTSRHPEAEMAQNSVRLNYGIPAIVKLLNQPNQWPLVKATIGLIRNLALCPANHAPLQEAAVIPRLVQLLVKAHQDAQRHVAAGTQQPYTDGVRMEEIVEGCTGALHILARDPMNRMEIFRLNTIPLFVQLLYSSVENIQRVAAGVLCEL | failed
MIESAVGKAAYSTAAFLIKSLPVVVIAIYAVSYSIKKGYLERFALFLQPALRKFGVSEFAVISFATCFVSPTASYSMLSQAWREKKVDDREVIAISFLNSFPSVFSHLYAYFIPFVIPVLGFAGVVYTAVRFAVAAIKSLIGLLLSRSRKNSDTSAPELSPLSVSQNVVRIGAVMAATYFIVSLLSQLGVFDLMAESLKFLPFRAEAVTIAIVEFFNIRSAVVTAASFIDAGLEWKWAVIGLILGNVISFSTRSVKHSLPMHLSLFGGFGVKIVLLNSIVTLILDIFFVVLLLLV | failed
MTQRAGIHPSARRPSAFDPPIGCARPAMTDTLSLRPIVGRRRLWELDPHFHCSIVGTCLTMSDLRKLATKTRLSVPADAPDYRLHGVFVRAAGAAGPAEKGIAKLMDKDLERRHTRALAQFRKAADNDALEALWDGAREAGDIPGPYWALMCHPLASRTLLERAFGEVHMLSHLMGAANRADVRRLAEMERETEAVEDRLAEAEARRLREIEIKQGEIGQLRAAIEAERARTRALVRRLEEAGEGGCRDLRIQTLEATMEGLRERLNREAWRADRLQGKLAEAERLLTEVRADRDDLRRRLAEQAEDLRTLEDLALDDDGEAGDRPPLDLGGRTILYVGGRPRTVPSLRKLVEDSNGRFAHHDAGREDGRAHLGEVLSGADIVICPVDCISHDACLKAKRACLKRGTPFVPLSSAGLGAFARCLRETAPLFAPANDGAALAAELEHHHHHH | failed
MFVEVFIVGLLAGMSPGPDFFIVMKNSLGFGARVGILTSLGIASALIVHITYTVLGFAFLIETYPALFFTIQLLGAAYLIWLGFHAIRSSPPKKEEAEIEETQPIQSTKDSKSSIQGFKEGFITNLLNPKAALFFLSIFSQFITPQTADWVRWMYGLEVVVAVGLWFSFLAIFISYKHFRRFYQTHSYWFDRFLGAALLFFAIRIIIGAF | failed
MDWLLTPGPVRLHPKALEALARPQLHHRTEAAREVFLKARGLLREAFRTEGEVLILTGSGTLAMEALVKNLFAPGERVLVPVYGKFSERFYEIALEAGLVVERLDYPYGDTPRPEDVAKEGYAGLLLVHSETSTGALADLPALARAFKEKNPEGLVGADMVTSLLVGEVALEAMGVDAAASGSQKGLMCPPGLGFVALSPRALERLKPRGYYLDLARELKAQKEGESAWTPAINLVLAVAAVLEEVLPRLEEHLALKAWQNALLYGVGEEGGLRPVPKRFSPAVAAFYLPEGVPYARVKEAFAQRGAVIAGGQGPLKGKVFRLSLMGAYDRYEALGVAGMFREVLEEILPAS | not failed
